Details: Bacillus amyloliquefaciens, Thermal, DSC, Potassium acetate 50 mM, reversible: yes, whole UniProt chain shown; for unfolding free energy: 25 °C

B1: Ribonuclease wild type, P00648 (protein)
chain: MMKMEGIALKKRLSWISVCLLVLVSAAGMLFSTAAKTETSSHKAHTEAQVINTFDGVADYLQTYHKLPDNYITKSEAQALGWVASKGNLADVAPGKSIGGDIFSNREGKLPGKSGRTWREADINYTSGFRNSDRILYSSDWLIYKTTDHYQTFTKIR
pH 2
  Tm: 24 °C
  unfolding enthalpy (calorimetric): 82.5 kcal/mol
pH 2.5
  Tm: 31.6 °C
  unfolding enthalpy (calorimetric): 94.3 kcal/mol
pH 3
  unfolding free energy: 4.4 kcal/mol
pH 3.5
  unfolding free energy: 6.79 kcal/mol
  Tm: 46.7 °C
  unfolding enthalpy (calorimetric): 119 kcal/mol
pH 4
  unfolding free energy: 8.13 kcal/mol
  Tm: 50.5 °C
  unfolding enthalpy (calorimetric): 125 kcal/mol
pH 4.5
  unfolding free energy: 9.02 kcal/mol
  Tm: 53 °C
  unfolding enthalpy (calorimetric): 129 kcal/mol
pH 5
  unfolding free energy: 9.35 kcal/mol
  Tm: 53.9 °C
  unfolding enthalpy (calorimetric): 131 kcal/mol

Source: FireProtDB (doi:10.1021/bi00179a018)
